We go through one molecule from patent publication US20030084466A1, “System and method for controlling male fertility” (priority 2000, published 2003).

For this test, the system named is Akt. The experiment in a line: SCF-induced Akt activation (Akt in vitro kinase assay, histone H2B substrate) in primary bone marrow-derived mast cells. In kind it is cell-based, mouse.

B1: SCF: murine stem cell factor (R & D Systems, Inc.), bivalent ligand of the Kit receptor (protein)
chain: KEICGNPVTDNVKDITKLVANLPNDYMITLNYVAGMDVLPSHCWLRDMVIQLSLSLTTLLDKFSNISEGLSNYSIIDKLGKIVDDLVLCMEENAPKNIKESPKRPETRSFTPEEFFSIFNRSIDAFKDFMVASDTSDCVLSSTLGPEKDSRVSVTKPFMLPPVA
Consider B1, for which the Akt activation (+/+ and loxP/loxP mast cells, 100 ng/ml murine SCF, 8 minutes, 37° C.) was determined as 5 fold. Moreover, the “Akt activation relative to wild type levels” value (Y719F/Y719F mast cells, SCF stimulation) amounted to 12%.
